The target of experiment [1] is T1, human TfR ectodomain fused to a mouse IgG1 Fc fragment (human, UniProt P02786 89-760).
T1 construct: extracellular domain; ectodomain fused to the N-terminal end of the Fc, made in-house; not shown: mouse IgG1 Fc fragment
Briefly: SPR, kinetic. In short, it runs like this:
(§1)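 TfR–mouse Fc fusions, produced in-house, captured on HC 1500M or CM5 chips either directly or via immobilized anti-mouse IgG. VHHs injected in single-cycle or multiple-cycle kinetic mode on Biacore T200.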
(In general: SPR reads the build-up and loss of mass on a sensor chip optically.)

In experiment [2] the target is T2, mouse TfR ectodomain fused to a mouse IgG1 Fc fragment (mouse, UniProt Q62351 89-763).
T2 construct: extracellular domain; not shown: mouse IgG1 Fc fragment
T2 sequence (Q62351 89-763): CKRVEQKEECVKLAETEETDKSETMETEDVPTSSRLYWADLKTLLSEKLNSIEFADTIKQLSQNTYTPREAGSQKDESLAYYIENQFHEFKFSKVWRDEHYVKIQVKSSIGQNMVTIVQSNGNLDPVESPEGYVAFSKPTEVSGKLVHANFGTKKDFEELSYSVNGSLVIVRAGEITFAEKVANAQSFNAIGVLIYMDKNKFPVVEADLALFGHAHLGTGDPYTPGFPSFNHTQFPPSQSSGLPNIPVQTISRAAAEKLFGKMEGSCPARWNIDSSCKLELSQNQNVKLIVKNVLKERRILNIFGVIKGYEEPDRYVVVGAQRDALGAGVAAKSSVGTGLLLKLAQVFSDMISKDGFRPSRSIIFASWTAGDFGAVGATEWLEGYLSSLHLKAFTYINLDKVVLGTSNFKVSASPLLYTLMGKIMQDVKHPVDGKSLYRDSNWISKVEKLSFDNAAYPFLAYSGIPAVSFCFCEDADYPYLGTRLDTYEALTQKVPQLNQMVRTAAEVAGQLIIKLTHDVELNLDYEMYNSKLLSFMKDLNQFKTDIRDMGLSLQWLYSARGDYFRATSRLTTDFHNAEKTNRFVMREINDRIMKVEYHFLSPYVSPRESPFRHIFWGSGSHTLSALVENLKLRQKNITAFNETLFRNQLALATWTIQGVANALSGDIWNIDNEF
Briefly: SPR, kinetic. In short, it runs like this:
as §1

The target in experiment [3] is T1, human TfR ectodomain fused to a mouse …. Briefly: SPR, at equilibrium. In short, it runs like this: as §1
The target of experiment [4] is T2, mouse TfR ectodomain fused to a mouse …. Briefly: SPR, at equilibrium. In short, it runs like this: as §1
The target of experiment [5] is T3, human transferrin receptor (hTfR) fused to EGFP, on CHO cells (human, UniProt P02786 1-760).
T3 construct: whole, on cells; also called human TfR; CHO-hTfR-EGFP; not shown: EGFP from pEGFP-C1 vector, fused to the N-terminal (intracellular) end of hTfR
T3 sequence (P02786 whole entry, the tested form may be a part): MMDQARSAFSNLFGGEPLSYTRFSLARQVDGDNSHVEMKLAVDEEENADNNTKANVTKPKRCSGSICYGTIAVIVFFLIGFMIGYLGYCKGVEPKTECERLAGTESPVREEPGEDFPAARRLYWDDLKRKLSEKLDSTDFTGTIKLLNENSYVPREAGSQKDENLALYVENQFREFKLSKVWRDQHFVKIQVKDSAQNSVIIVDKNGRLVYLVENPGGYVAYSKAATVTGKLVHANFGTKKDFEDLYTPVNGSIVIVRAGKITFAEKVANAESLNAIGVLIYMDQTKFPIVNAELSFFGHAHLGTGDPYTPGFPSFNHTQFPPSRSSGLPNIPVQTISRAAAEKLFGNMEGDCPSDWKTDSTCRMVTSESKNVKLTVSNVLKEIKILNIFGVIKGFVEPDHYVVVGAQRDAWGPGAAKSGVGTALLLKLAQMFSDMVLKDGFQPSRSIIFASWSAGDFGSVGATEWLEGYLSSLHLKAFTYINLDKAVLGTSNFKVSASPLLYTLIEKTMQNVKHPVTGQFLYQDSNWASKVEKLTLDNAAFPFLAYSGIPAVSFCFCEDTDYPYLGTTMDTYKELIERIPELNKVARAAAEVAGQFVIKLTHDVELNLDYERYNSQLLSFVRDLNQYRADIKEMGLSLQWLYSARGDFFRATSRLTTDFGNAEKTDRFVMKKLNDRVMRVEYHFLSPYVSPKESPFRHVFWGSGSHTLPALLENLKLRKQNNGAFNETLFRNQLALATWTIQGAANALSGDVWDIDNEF
Briefly: apparent Kd, flow cytometry, CHO cells. In short, it runs like this:
(§2)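 CHO cells expressing TfR-EGFP fusions, blocked in PBS/BSA 2%, then incubated with increasing VHH concentrations for 1 hr at 4° C. Bound VHH detected via anti-6His antibody and Alexa647 secondary, cells PFA-fixed, read by flow cytometry. Apparent Kd from nonlinear fit.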
In general terms: A flow cytometer gives signals particle by particle.

The target in experiment [6] is T4, mouse transferrin receptor (mTfR) fused to EGFP, on CHO cells (mouse, UniProt Q62351 1-763).
T4 construct: whole, on cells; also called mouse TfR; CHO-mTfR-EGFP; not shown: EGFP
T4 sequence (Q62351 whole entry, the tested form may be a part): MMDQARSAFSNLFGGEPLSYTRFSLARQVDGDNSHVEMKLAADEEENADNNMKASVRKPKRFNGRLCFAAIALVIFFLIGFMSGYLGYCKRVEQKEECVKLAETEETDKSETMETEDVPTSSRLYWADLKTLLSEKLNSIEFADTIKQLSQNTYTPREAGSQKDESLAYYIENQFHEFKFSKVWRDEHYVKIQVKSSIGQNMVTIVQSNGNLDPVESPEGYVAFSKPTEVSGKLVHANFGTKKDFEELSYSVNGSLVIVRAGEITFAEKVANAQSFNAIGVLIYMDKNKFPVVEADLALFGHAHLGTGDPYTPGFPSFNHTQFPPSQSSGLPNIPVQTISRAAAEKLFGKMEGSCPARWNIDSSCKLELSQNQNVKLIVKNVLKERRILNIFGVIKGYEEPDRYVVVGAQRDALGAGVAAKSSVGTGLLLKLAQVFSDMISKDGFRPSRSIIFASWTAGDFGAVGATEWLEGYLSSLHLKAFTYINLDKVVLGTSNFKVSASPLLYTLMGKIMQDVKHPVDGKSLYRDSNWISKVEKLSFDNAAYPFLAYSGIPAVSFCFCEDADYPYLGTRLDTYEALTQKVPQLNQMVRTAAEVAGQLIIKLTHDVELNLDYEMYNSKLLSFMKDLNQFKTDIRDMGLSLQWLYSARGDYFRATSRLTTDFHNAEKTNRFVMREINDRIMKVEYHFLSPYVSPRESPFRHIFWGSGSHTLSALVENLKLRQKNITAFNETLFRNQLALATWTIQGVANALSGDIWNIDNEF
Nature of the experiment: apparent Kd, flow cytometry, CHO cells. In short, it runs like this: as §2

Experiment [7] deals with T5, rhesus monkey transferrin receptor (rhTfR) fused to EGFP, on CHO cells (rhesus monkey).
T5 construct: whole, on cells; also called rhesus monkey TfR
Briefly: apparent Kd, flow cytometry, CHO cells. In short, it runs like this:
as §2

Experiment [8] concerns the target T6, murine TfR expressed by murine neuroblastoma Neuro-2a cells (mouse, UniProt Q62351 1-763).
T6 construct: whole, on cells; also called mTfR (N2a cells)
Nature of the experiment: competition with the fluorescent reference VHH on Neuro-2a cells as in FIG. 25; Ki/app on mTfR, free VHH. As to the method:
(§3) The binding of VHH-Oligo and VHH-hFc-Oligo conjugates to mTfR was evaluated using a competition assay on living cells expressing the receptor of interest, namely murine neuroblastoma Neuro-2a cells (N2a). N2a cells were grown in Dulbecco's Modified Eagle Medium (DMEM) GlutaMAX supplemented with 10% v/v FBS in 5% CO₂ at 37° C. Cells were seeded two days before experiments in 96-well plates at a density of 50.000 cells/well. […] Resuspended cells were transferred in a 96-deepwell plate (V-bottom) containing 1% fetal bovine serum (FBS)/0.02% sodium azide in phosphate-buffered saline (PBS) and then centrifuged for 5 min at 2000 rpm at 4° C. After removing the supernatant, 5 mM EDTA in D-PBS and 4% paraformaldehyde (PFA) (v/v 1:1) were added into wells to fix cells for 15 min at room temperature. PFA was removed by centrifugation (5 min, 3000 rpm, 4° C.) and cells were resuspended with 5 mM EDTA in D-PBS. Then the cellular A680-associated fluorescence signal was quantified using an Attune™ NxT flow cytometer (Thermo Fisher Scientific) equipped with Attune™ NxT v3.1.2. Experimental data (experimental triplicates) were fitted with GraphPad Prism® software using a nonlinear fit to determine the apparent Ki inhibition constants.

In experiment [9] the target is T6, murine TfR expressed by murine …. Nature of the experiment: competition with the fluorescent reference VHH on Neuro-2a cells as in FIG. 25; Ki/app on mTfR. Here is the method: as §3
Experiment [10] concerns the target T3, human transferrin receptor (hTfR) fused …. Briefly: flow cytometry on CHO-hTfR-EGFP cells, 1 hr at 4 C, anti-6His + Alexa647 anti-mouse; ratio to background fluorescence. Here is the method:
FIGS. 15A-15H: In vitro gene silencing activity of VHH-siGFPst1 bioconjugates. […] CHO-hTfR-EGFP cells were incubated 1 hr at 4° C. with various concentrations of the indicated compounds. Detection of VHHs was performed using a primary mouse anti-6His (1/1000) and an Alexa647-conjugated anti-mouse secondary antibody (1/400). Measurements of cell-surface signal associated to VHH were performed using flow cytometry. The results are expressed as the ratio of Alexa647-associated fluorescence intensity of test compounds to that of background fluorescence. […] The total fluorescence associated to the EGFP protein was then quantified using flow cytometry and rationalized to that of untreated (control) cells (set at 100%) *** p≤0.001. […] The total fluorescence associated with the EGFP protein was then quantified using flow cytometry and rationalized to that of untreated (control) cells (set at 100%). […] CHO-hTfR-EGFP cells were incubated with the indicated compounds at 1 μM during 120 hrs at 37° C. Data were processed and analyzed as described in (B). *** p≤0.001 vs. untreated cells. […] The total fluorescence associated with the EGFP protein was then quantified using flow cytometry and rationalized to that of untreated (control) cells (set at 100%).

Experiment [11] concerns the target T4, mouse transferrin receptor (mTfR) fused …. Nature of the experiment: cell-based flow cytometry assay on mTfR-expressing cells (as in Example XI).
Experiment [12] has the same target. Briefly: cell-based flow cytometry assay on mTfR-expressing cells (as in Example XI); Kd/app.

The values below come from patent US20230414780A1 (VECT HORUS, published 2023).

T1 sequence (P02786 89-760): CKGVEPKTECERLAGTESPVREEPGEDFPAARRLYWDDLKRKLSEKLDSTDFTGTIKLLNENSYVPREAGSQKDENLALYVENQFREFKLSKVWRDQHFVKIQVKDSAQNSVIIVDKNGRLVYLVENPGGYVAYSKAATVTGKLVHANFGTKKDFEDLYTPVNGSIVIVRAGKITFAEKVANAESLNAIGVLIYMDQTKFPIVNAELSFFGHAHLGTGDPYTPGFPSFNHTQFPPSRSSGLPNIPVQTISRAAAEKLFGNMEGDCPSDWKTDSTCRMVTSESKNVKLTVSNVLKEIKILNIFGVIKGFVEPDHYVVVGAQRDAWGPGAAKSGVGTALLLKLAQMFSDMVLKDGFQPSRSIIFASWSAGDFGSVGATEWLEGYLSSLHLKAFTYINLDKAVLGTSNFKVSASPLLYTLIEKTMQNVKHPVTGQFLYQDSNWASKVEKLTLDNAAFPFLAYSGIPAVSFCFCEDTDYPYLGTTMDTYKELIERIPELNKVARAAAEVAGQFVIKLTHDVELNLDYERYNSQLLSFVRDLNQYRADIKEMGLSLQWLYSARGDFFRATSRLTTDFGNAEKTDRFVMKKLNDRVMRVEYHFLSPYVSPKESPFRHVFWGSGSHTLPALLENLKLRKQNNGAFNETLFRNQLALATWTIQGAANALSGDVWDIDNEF
T6 sequence (Q62351 whole entry): as the sequence (Q62351 whole entry, the tested form may be a part) above

B1: C5^h18 (VHH)
VHH: EVQLVESGGGVVQPGGSLKLSCVASGTDFSINFIRWYRQAPGKGLEFVAGFTATGNTNYADSVKGRFTISRDNAKNTLYLQMNSLRPEDTAVYYCYMLDKWGQGTQVTVSS
What is called koff is the first-order rate constant of dissociation. In general, kon refers to the second-order rate constant of association. As to B1, the Kd turned out to be 30.9 nM in experiment [1]; 336 nM in experiment [2]; 27.3 nM in [3]; 300 nM in experiment [4]; 11 nM in experiment [5]; 834 nM in [6]. Also, in [7], the Kd was determined as 957 nM. Besides, the off-rate constant (koff) is 0.013 s⁻¹ in experiment [1] and 0.235 s⁻¹ in experiment [2]. Further, the kon amounted to 462000 M⁻¹ s⁻¹ in experiment [1] and 816000 M⁻¹ s⁻¹ in experiment [2]. This molecule also came in with a Ki in [8] of 1480 nM.

B2: VHH A13 (C5^V13) (VHH)
VHH: EVQLVESGGGVVQPGGSLKLSCVASGTDFSINFIRWYRQAPGKQREFVAGFSATGNTNYADSMKGRFTISRDNTKNAVYLQIDSLKPEDTAVYYCYMLDKWGQGTQVTVSS
Consider B2, for which the Kd was found to be 0.357 nM in [1]; 78.9 nM in [2]; 113 nM in experiment [4]; 3.5 nM in [5]; 187 nM in [6]; 28 nM in [7]. The dissociation rate constant (koff) in experiment [1] was 0.000392 s⁻¹; in experiment [2], 0.0182 s⁻¹. Further, the figures for the kon in experiment [1] and in [2] were 1.14e+06 M⁻¹ s⁻¹ and 231000 M⁻¹ s⁻¹, respectively. The molecule further came in with a Ki in experiment [8] of 1320 nM.

B3: C5h19-siSOD1m (VHH)
VHH: EVQLVESGGGVVQPGGSLRLSCAASGTDFSINFIRWYRQAPGKQREFVAGFTATGNTNYADSVKGRFTISRDNAKNTLYLQMNSLRPEDTAVYYCYMLDKWGQGTQVTVSS
modifications: conjugated to the siSOD1m siRNA duplex through a linker; site and tag not given for this conjugate ; VHH conjugated through a C-terminal tag and a stable click linker to the 3' end of the sense strand of the siSOD1m siRNA duplex (SEQ ID NO 465/466). The letters cannot carry this.
notes: Member of the group m173; not shown: C-terminal tag/linker that carries the siRNA
The molecule B3 came in with a Ki in experiment [9] of 2630 nM.

B4: C5V13-siSOD1m (VHH)
VHH: EVQLVESGGGVVQPGGSLKLSCVASGTDFSINFIRWYRQAPGKQREFVAGFSATGNTNYADSMKGRFTISRDNTKNAVYLQIDSLKPEDTAVYYCYMLDKWGQGTQVTVSS
modifications: conjugated to the siSOD1m siRNA duplex through a linker; site and tag not given for this conjugate ; VHH conjugated through a C-terminal tag and a stable click linker to the 3' end of the sense strand of the siSOD1m siRNA duplex (SEQ ID NO 465/466). The letters cannot carry this.
notes: as for B3
Molecule B4 gave a Ki in experiment [9] of 512 nM.

B5: C5^h19 (VHH)
VHH: EVQLVESGGGVVQPGGSLRLSCAASGTDFSINFIRWYRQAPGKQREFVAGFTATGNTNYADSVKGRFTISRDNAKNTLYLQMNSLRPEDTAVYYCYMLDKWGQGTQVTVSS
Take B5: the Kd in experiment [1] is 16.3 nM; in experiment [2], 643 nM; in experiment [3], 13.2 nM; in experiment [4] it was 2750 nM; in experiment [5] it was 5.4 nM; in experiment [6], 1030 nM. Further, the Kd in experiment [7] was 521 nM. Besides, the values for the koff in experiment [1] and in experiment [2] were 0.00904 s⁻¹ and 0.00825 s⁻¹, respectively. Besides, the on-rate constant (kon) in [1] turned out to be 624000 M⁻¹ s⁻¹; in experiment [2], 12800 M⁻¹ s⁻¹. This molecule showed a Ki in experiment [8] of 7600 nM.

B6: VHH A1 (C5^V1) (VHH)
VHH: EVQLVESGGGVVQPGGSLKLSCVASGADFSINFIRWYRQAPGKQREFVAGFTATGNTNYADSMKGRFTISRDNTKNAVYLQIDSLKPEDTAVYYCYMLDKWGQGTQVTVSS
For B6, the Kd in [1] came out at 0.876 nM; in experiment [2], 244 nM; in [4], 228 nM; in [5] it was 3.2 nM; in [6] it was 259 nM; in [7], 13 nM. In addition, the koff in experiment [1] worked out at 0.000487 s⁻¹; in experiment [2] it was 0.12 s⁻¹. Besides, the kon came out at 555000 M⁻¹ s⁻¹ in experiment [1] and 546000 M⁻¹ s⁻¹ in [2]. In [8], this molecule came in with a Ki of 834 nM.

B7: C5h18-siSOD1m (VHH)
VHH: EVQLVESGGGVVQPGGSLKLSCVASGTDFSINFIRWYRQAPGKGLEFVAGFTATGNTNYADSVKGRFTISRDNAKNTLYLQMNSLRPEDTAVYYCYMLDKWGQGTQVTVSS
modifications: conjugated to the siSOD1m siRNA duplex through a linker; site and tag not given for this conjugate ; VHH conjugated through a C-terminal tag and a stable click linker to the 3' end of the sense strand of the siSOD1m siRNA duplex (SEQ ID NO 465/466). The letters cannot carry this.
notes: as for B3
Take B7: in experiment [9], the Ki was 1070 nM.

B8: B8^h1 (VHH)
VHH: EVQLVESGGGVVQPGGSLRLSCAASGEIFSINFMRWYRQAPGKGLEWVAGFTRDGSTNYPDSVKGRFTISRDNAKNTVYLQMNSLRPEDTAVYYCYMLDTWGQGTQVTVSS
In the case of B8, the Kd came to 0.212 nM in experiment [1], 4.1 nM in experiment [5], 2.8 nM in experiment [6] and 1.9 nM in experiment [7]. Moreover, in experiment [1], the koff was determined as 9.49e-05 s⁻¹. Also, the kon in experiment [1] is 444000 M⁻¹ s⁻¹. Further, the Ki in experiment [8] was 43 nM.

B9: VHH B-siGFPst1 bioconjugate (VHH)
VHH: EVQLVESGGGVVQPGGSLRLSCAASGEIFSINFMRWYRQAPGKQREWVAGFTRDGSTNYPDSAKGRFTISRDNAKNTVYLQIDSLKPEDTAVYYCYMLDTWGQGTQVTVSS
modifications: siGFPst1 siRNA linked to the Gln of the C-terminal Q-tag
notes: not shown: C-terminal tag with His tag and Q-tag
What is called EC50 (read off the curve) is the concentration that produces a half-maximal response. Turning to B9, the concentration giving a half-maximal response (EC50 (read off the curve)) in experiment [10] is about 3 nM.

B10: 13C3-HC-C5h9 (antibody)
heavy: QVQLQQSGPELVRPGVSVKISCKGSGYTFTDYAMHWVKQSHAKSLEWIGVISTKYGKTNYNQKFKGKATMTVDKSSSTAYMELARLTSEDSAIYYCARGDDGYSWGQGTSVTVSSAKTTPPSVYPLAPGSAAQTNSMVTLGCLVKGYFPEPVTVTWNSGSLSSGVHTFPAVLQSDLYTLSSSVTVPSSTWPSETVTCNVAHPASSTKVDKKIVPRDCGCKPCICTVPEVSSVFIFPPKPKDVLTITLTPKVTCVVVDISKDDPEVQFSWFVDDVEVHTAQTQPREEQFNSTFRSVSELPIMHQDWLNGKEFKCRVNSAAFPAPIEKTISKTKGRPKAPQVYTIPPPKEQMAKDKVSLTCMITDFFPEDITVEWQWNGQPAENYKNTQPIMDTDGSYFVYSKLNVQKSNWEAGNTFTCSVLHEGLHNHHTEKSLSHSPGGGGGMAEVQLVESGGGVVQPGGSLRLSCAASGTDFSINFIRWYRQAPGKGLEFVAGFTATGNTNYADSVKGRFTISRDNAKNTLYLQMNSLRPEDTAVYYCYMLDKWGQGTQVTVSSAAA
light: DVVMTQTPLSLPVSLGDQASISCRSGQSLVHSNGNTYLHWYLQKPGQSPKLLIYTVSNRFSGVPDRFSGSGSGSDFTLKISRVEAEDLGVYFCSQNTFVPWTFGGGTKLEIKRADAAPTVSIFPPSSEQLTSGGASVVCFLNNFYPKDINVKWKIDGSERQNGVLNSWTDQDSKDSTYSMSSTLTLTKDEYERHNSYTCEATHKTSTSPIVKSFNRNEC
For B10, the Bmax in experiment [11] is 531 RFI. In experiment [12], this molecule returned a Kd of 15.8 nM.
